Data: PMC11489063, “Study of sulfoglycolysis in Enterococcus gilvus reveals a widespread bifurcated pathway for dihydroxypropanesulfonate degradation” (iScience, 2024)

Assays:
[1] = molecular target: T1, HpfX (EgHpfX), 3-sulfopropionaldehyde dehydrogenase (Enterococcus gilvus, UniProt R2XKF7); experiment: LC-MS of product 3-SPC, HpfD-coupled; type: biochemical; conditions: 3-SPA made in situ by HpfD from 40 mM 3-HPS; 4 mM NAD+, 0.5 mM CoA, CAPSO pH 9.5, RT
T1 construct: gene I592_01329
T1 sequence (R2XKF7 1-455): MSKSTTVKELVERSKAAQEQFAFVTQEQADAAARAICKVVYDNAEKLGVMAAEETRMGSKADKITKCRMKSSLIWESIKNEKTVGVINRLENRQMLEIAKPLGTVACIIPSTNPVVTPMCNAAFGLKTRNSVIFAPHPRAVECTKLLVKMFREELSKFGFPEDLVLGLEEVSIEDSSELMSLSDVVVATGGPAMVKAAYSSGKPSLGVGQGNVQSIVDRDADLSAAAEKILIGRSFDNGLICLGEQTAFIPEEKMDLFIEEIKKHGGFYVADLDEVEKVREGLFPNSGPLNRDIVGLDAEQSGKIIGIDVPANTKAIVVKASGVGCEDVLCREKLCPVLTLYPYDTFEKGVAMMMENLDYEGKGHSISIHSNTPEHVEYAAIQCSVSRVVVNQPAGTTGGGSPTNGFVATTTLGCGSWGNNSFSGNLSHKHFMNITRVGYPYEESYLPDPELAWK

[2] = molecular target: T1, HpfX (EgHpfX), 3-sulfopropionaldehyde dehydrogenase; experiment: spectrophotometric NADH consumption, A340, HpfYZ-coupled; type: biochemical; conditions: reduction of 3-SPC made in situ by HpfYZ; 0.4 mM NADH, 10 mM 3-SP, 2 mM ATP, 0.4 mM CoA, 10 mM MgCl2, Tris pH 7.5, RT
[3] = test system: NC(=O)c1ccc[n+]([C@@H]2O[C@H](COP(=O)(O)OP(=O)(O)OC[C@H]3O[C@@H](n4cnc5c(N)ncnc54)[C@H](O)[C@@H]3O)[C@@H](O)[C@H]2O)c1; experiment: purified protein; conditions: apparent, oxidation direction, 40 mM 3-HPS, 50 mM CAPSO pH 9.5, RT
O=S(=O)(O)CCCO = experiment: purified protein; conditions: apparent, oxidation direction, 4 mM NAD+, 50 mM CAPSO pH 9.5, RT
[4] = substrate: Nc1ncnc2c1ncn2[C@@H]1O[C@H](COP(=O)(O)OP(=O)(O)OP(=O)(O)O)[C@@H](O)[C@H]1O; experiment: PK-LDH coupled spectrophotometric assay, A340; type: biochemical, Enterococcus gilvus; conditions: apparent, 2 mM 3-SP, 0.4 mM CoA, 10 mM MgCl2, 50 mM KCl, Tris-HCl pH 7.5, RT
[5] = substrate: CC(C)(COP(=O)(O)OP(=O)(O)OC[C@H]1O[C@@H](n2cnc3c(N)ncnc32)[C@H](O)[C@@H]1OP(=O)(O)O)[C@@H](O)C(=O)NCCC(=O)NCCS; experiment: PK-LDH coupled spectrophotometric assay, A340; type: biochemical, Enterococcus gilvus; conditions: apparent, 2 mM 3-SP, 2 mM ATP, 10 mM MgCl2, 50 mM KCl, Tris-HCl pH 7.5, RT
[6] = substrate: O=C(O)CCS(=O)(=O)O; experiment: PK-LDH coupled spectrophotometric assay, A340; type: biochemical, Enterococcus gilvus; conditions: apparent, 2 mM ATP, 0.4 mM CoA, 10 mM MgCl2, 50 mM KCl, Tris-HCl pH 7.5, RT

Molecule: O=CCCS(=O)(=O)O [3-SPA]
- LC-MS of product 3-SPC, HpfD-coupled [1]: The ability of the HpfX to oxidize 3-SPA into 3-SPC was ascertained

Molecule: NC(=O)C1=CN([C@@H]2O[C@H](COP(=O)(O)OP(=O)(O)OC[C@H]3O[C@@H](n4cnc5c(N)ncnc54)[C@H](O)[C@@H]3O)[C@@H](O)[C@H]2O)C=CC1 [NADH]
- spectrophotometric NADH consumption, A340, HpfYZ-coupled [2]: indicating reduction of 3-SPC accompanied by the consumption of NADH

Molecule: HpfD (EgHpfD), 3-sulfopropionaldehyde reductase (Enterococcus gilvus ATCC BAA-350)
- Km [3]: 640 ± 90 µM
- kcat [3]: 20.87 ± 0.84 s⁻¹
- Km (O=S(=O)(O)CCCO): 4970 ± 570 µM
- kcat (O=S(=O)(O)CCCO): 15.30 ± 0.37 s⁻¹

B1: HpfYZ (EgHpfY / EgHpfZ), 3-sulfopropionate-CoA ligase (Enterococcus gilvus ATCC BAA-350) (protein)
chain 1: MDYLEIEGKAQLERFGIPINESILLTGDNIPEDIPYPCVLKGQILSGKRGKAGAVRVVKTRAELIEAKEIIEQIKINDQVMEGVIACGFLPIEEEYYLGMTLDVKNRAMIMLFTPFGGMDIEELAETDPEKLLRFDCTEGFNAEKFKKASTIFELPEKRLNLVVDIAEKLSEACFALDATTIEINPLALLKDESLMAIDAKLVIDDNALYRQGDYTILPRTVQEKSLQEIEAEQYDLTYVEVDPKGNIGTMAGGAGIGMATMDTVFHYGGRVNNFLDLGGGVTSEKTYQAMRILLENENTDYILINIFGGINNCADMAEGITRAYKESGISKTVVVKSRGFNQEQGWSMYKELGFPQAKYGTTDEAVQILLALKGAK
chain 2: MSILINQETELLIIGITGKQGRIHAKRTIESGAKLRAGVAPGKNGEMVEGIPVFESVEDARKEFPQIRAAMLLTPPRFVKDAAIQALQSGIELLVIITEFVPVLDTLEIVTKAKKLGAKVVGPNTIGVIAPGKSKLGIMPADIYGKGRIGIISRSGTLTHETASNLTFKGYGLSTCVGIGGDSIVGMDHADVLELFANDDETDAIVLIGEIGGTSEEMAAAKIKELNIQKPICAYIAGMHAPENKKMGHAGAIVSGNMGTVKSKVEALEDAGVTVCPTLGKIVEFMEKTNSQTNGKLRSLEPKVDASILQT
notes: N-terminal His6-TEV tagged HpfY co-expressed with untagged HpfZ in E. coli BL21(DE3), co-purified 1:1 (predicted heterodimer); codon-optimized genes
- Km [4]: 180 ± 140 µM
- kcat [4]: 0.33 ± 0.01 s⁻¹
- Km [5]: 110 ± 30 µM
- kcat [5]: 0.45 ± 0.04 s⁻¹
- Km [6]: 510 ± 70 µM
- kcat [6]: 0.38 ± 0.01 s⁻¹
